Changes are numbered by the printed parent chain. Numbers in names are those of the source.

Assay [1] concerns the target T1, Recombinant soluble human IL-6R (human, UniProt P08887 20-365).
T1 sequence (looked up): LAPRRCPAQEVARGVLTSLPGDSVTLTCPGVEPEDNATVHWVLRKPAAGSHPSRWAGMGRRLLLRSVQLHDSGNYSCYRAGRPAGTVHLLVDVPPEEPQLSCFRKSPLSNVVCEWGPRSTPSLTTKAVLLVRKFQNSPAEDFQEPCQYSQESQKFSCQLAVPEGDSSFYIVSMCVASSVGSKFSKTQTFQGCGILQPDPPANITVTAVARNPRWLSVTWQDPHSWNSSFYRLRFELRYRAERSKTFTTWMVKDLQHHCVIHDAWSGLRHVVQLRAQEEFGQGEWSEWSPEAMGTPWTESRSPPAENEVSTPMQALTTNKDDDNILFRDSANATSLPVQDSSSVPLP
In words: cell-based or functional assay.

The target of assay [2] is T1, Recombinant soluble human IL-6R. Briefly: gp130 ELISA: inhibition of binding of sIL-6R/IL-6 complex to coated gp130. In general terms: In an ELISA, binding on a coated surface is turned into a signal by an enzyme label.
Assay [3] has the same target. Briefly: cell-based or functional assay. This is another data set of the same source.
Assay [4] shares this target. Briefly: Biacore (SPR), ICVD fixed to the sensor plate, soluble human IL-6R flowed; ICVD on the chip, soluble human IL-6R flowed. An excerpt: The ICVD was fixed to the Biacore sensor plate and soluble human IL-6R was flowed over the plate to detect binding.
In general terms: SPR reads the build-up and loss of mass on a sensor chip optically.

The target of assay [5] is T2, Membrane-bound IL-6 receptor on TF1 cells (human, UniProt P08887 20-468).
T2 sequence (looked up): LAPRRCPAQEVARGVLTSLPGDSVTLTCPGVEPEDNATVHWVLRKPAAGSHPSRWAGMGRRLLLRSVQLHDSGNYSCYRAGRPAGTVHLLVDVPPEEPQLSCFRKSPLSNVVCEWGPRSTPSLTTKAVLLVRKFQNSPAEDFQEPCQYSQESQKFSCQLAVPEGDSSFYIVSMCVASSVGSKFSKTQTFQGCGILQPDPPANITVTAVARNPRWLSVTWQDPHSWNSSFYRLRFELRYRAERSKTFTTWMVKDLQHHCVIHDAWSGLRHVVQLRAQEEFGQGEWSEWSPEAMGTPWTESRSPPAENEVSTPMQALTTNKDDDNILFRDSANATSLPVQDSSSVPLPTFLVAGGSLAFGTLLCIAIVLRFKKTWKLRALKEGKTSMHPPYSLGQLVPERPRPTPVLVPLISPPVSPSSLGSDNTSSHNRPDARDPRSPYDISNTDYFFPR
Briefly: cell-based or functional assay.

The target in assay [6] is T1, Recombinant soluble human IL-6R. Briefly: Biacore (SPR), soluble human IL-6R flowed over the plate.
Assay [7] addresses T3, Human TNF-alpha (human, UniProt P01375 77-233).
T3 construct: there it was coupled to the chip via covalently linked DNA in one orientation; also called hTNF-alpha; h-TNF-alpha
Briefly: switchSENSE, ID-38F immobilised, TNF-alpha flowed, fluorescence.

The target in assay [8] is T3, Human TNF-alpha. In words: competition ELISA: inhibition of TNF-alpha binding to coated TNFR-2 (Enbrel).
Protocol: An ELISA plate was coated overnight with 1.5 μg/ml TNFR-2 (Enbrel) in PBS overnight at 4° C. The plate was then washed and blocked in 1% BSA for >1 h at RT before being used. […] Finally, the plate was washed again and 100 μl/well of TMB were added. Colour development was stopped by adding 50 μl/well of 0.5M H₂SO₄ and OD450 nm measurements were taken using a BMG Labtek Fluostar Omega plate reader.
Assay [9] concerns the target T3, Human TNF-alpha. Briefly: switchSENSE, TNFa immobilised, fluorescence.
The target of assay [10] is T3, Human TNF-alpha. Briefly: cell-based or functional assay.

T3 sequence (P01375 77-233 limits assumed): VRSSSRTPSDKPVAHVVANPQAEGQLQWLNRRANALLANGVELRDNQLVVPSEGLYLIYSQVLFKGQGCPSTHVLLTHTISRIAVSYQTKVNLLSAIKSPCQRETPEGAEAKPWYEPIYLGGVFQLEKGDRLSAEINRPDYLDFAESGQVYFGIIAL

B1: ID-123V (VHH)
VHH: EVQLVESGGGLVQAGGSTRLTCKASGSISNINSINVMAWYRQAPGKGRELVAIIGKGGGTNYADFVKGRFTISRDAAKNTVYLQMNSLRPEDTAVYYCYADYEDHDSPHNASWGQGTQVTVSS
notes: equivalent to ID-142V except N-terminal Glu (lacks the E1D mutation) and tag; not shown: C-terminal Flag, His tag
For the molecule B1, the “M1 cellular assay EC50” value in assay [1] amounted to 4.2 nM. Also, the EC50 in assay [2] came to 0.498 nM. In assay [3], the “EC50, nM, M1 cell assay (% inhibition of the IL-6+IL-6R response)” value worked out at 2.31 nM. The Kd in [4] was determined as 1.1 nM. The “TF-1 cell assay EC50 nM (5 ng/ml IL-6)” value in assay [5] was 4.5 nM.

B2: ID-142V (VHH)
VHH: B1 VHH with E1D
Turning to B2, the “EC50, nM, M1 cell assay (% inhibition of the IL-6+IL-6R response)” value in [3] amounted to 4.05 nM.

B3: 20A11 (VHH)
VHH: EVQLVESGGGLVQPGGSLRLSCAASGSVFKINVMAWYRQAPGKGRELVAGIISGGSTSYADSVKGRFTISRDNAKNTLYLQMNSLRPEDTAVYYCAFITTESDYDLGRRYWGQGTLVTVSS
B3: the EC50 in [2] stood at 0.22 nM. Besides, in assay [5], the “TF-1 cell assay EC50 nM (5 ng/ml IL-6)” value was determined as 0.56 nM.

B4: Tocilizumab (antibody, V domains shown)
VH: QVQLQESGPGLVRPSQTLSLTCTVSGYSITSDHAWSWVRQPPGRGLEWIGYISYSGITTYNPSLKSRVTMLRDTSKNQFSLRLSSVTAADTAVYYCARSLARTTAMDYWGQGSLVTVSS
VL: DIQMTQSPSSLSASVGDRVTITCRASQDISSYLNWYQQKPGKAPKLLIYYTSRLHSGVPSRFSGSGSGTDFTFTISSLQPEDIATYYCQQGNTLPYTFGQGTKVEIKR
Take B4: in [1], the “M1 cellular assay EC50” value turned out to be 5.36 nM. Moreover, the EC50 in [2] is 1.83 nM. Besides, the “EC50, nM, M1 cell assay (% inhibition of the IL-6+IL-6R response)” value in assay [3] was determined as 4.16 nM. Besides, the Kd in assay [6] was 0.39 nM. Further, in [5], the “TF-1 cell assay EC50 nM (5 ng/ml IL-6)” value was determined as 1.12 nM.

B5: ID-38F (VHH)
VHH: DVQLVESGGGLVQPGGSLKLSCAASGFDFSSHWMYWVRQAPGKELEWLSEINTNGLITHYGDSVKGRFTVSRNNAANKMYLELTRLEPEDTALYYCARNQHGLNKGQGTQVTVSS
notes: also called ID38F (S. cerevisiae-produced); anti-TNF ICVD
In the assay with Human TNF-alpha [7], B5 showed a dissociation constant Kd of 0.0168 nM, a koff of 4.2e-05 s⁻¹ and a kon of 2.5e+06 M⁻¹ s⁻¹. The EC50 with Human TNF-alpha [8] worked out at 0.383 nM. In the assay with Human TNF-alpha [9], this molecule yielded a kon of 8.1e+06 M⁻¹ s⁻¹. Also, the “EC50 (nM), L929 assay (neutralisation of TNF-alpha-induced cytotoxicity)” value in the assay with Human TNF-alpha [10] came to 0.127 nM.

The term EC50 denotes the concentration needed to bring the measured effect to its halfway point. By Kd is commonly meant the concentration at which binding is half-saturated. By koff is commonly meant the first-order rate constant of dissociation. The term kon denotes the rate constant with which the complex forms. A lower kon goes with slow association.

The record behind these values is patent US20240277864A1 (SORRISO PHARMACEUTICALS, published 2024).
